The values below come from patent US20120276102A1 (Pfizer, published 2012).

First the molecules themselves.
B1: AbP (antibody, human IgG1, V domains shown)
VH: QVQLQESGPGLVKPSETLSLTCAVSGYSISSGYYWGWIRQPPGKGLEWIGSISHTGNTYYNPPLKSRVTISVDTSKNQFSLKLSSVTAADTAVYYCARGGGISRPEYWGQGTLVTVSS
VL: SSELTQDPAVSVALGQTVRITCQGDSLRTYYASWYQQKPGQAPVLVIYGKHKRPSGIPDRFSGSSSGNTASLTITGAQAEDEADYYCVSRSAKGNPHVLFGGGTQLTVL
notes: CDR3 graft, residue limits derived as for m29; also called VHP/VL20; VHPTM/VL20
B2: AbO (antibody, human IgG1, V domains shown)
VH: B1 VH
VL: B1 VL with S89T
notes: CDR3 graft, residue limits derived as for m29; also called VHP/VL16; VHPTM/VL16
B3: AbS (antibody, V domains shown)
VH: B1 VH
VL: B1 VL with V88M, A92I, K93W
notes: CDR3 graft, residue limits derived as for m29; also called VHP/VL6; VHPTM/VL6
B4: AbT (antibody, human IgG1, V domains shown)
VH: B1 VH
VL: B1 VL with S89A, A92N
notes: CDR3 graft, residue limits derived as for m29; also called VHP/VL9; VHPTM/VL9
B5: AbU (antibody, human IgG1, V domains shown)
VH: B1 VH
VL: B1 VL with V88T, S89T, A92N
notes: CDR3 graft, residue limits derived as for m29; also called VHP/VL25; VHPTM/VL25
B6: AbR (antibody, human IgG1, V domains shown)
VH: B1 VH with G99F, G100M, I102F, S103G
VL: B1 VL with S89T, A92V
notes: CDR3 graft, residue limits derived as for m29; also called VH3/VL18; VH3DM/VL18
B7: AbQ (antibody, human IgG1, V domains shown)
VH: B1 VH with G99F, G100M, I102F, S103G
VL: B1 VL with S89A, A92V, K93V
notes: CDR3 graft, residue limits derived as for m29; also called VH3/VL2; VH3DM/VL2
B8: parental 18A5 antibody (antibody, V domains shown)
VH: B1 VH with P14T, Q110K
VL: SSELTQDPPVSVALGQTVTLTCQGDSLRTYYASWYQQKSGQAPILLLYGKHKRPSGIPDRFSGSTSGDTASLTITGAQAEDEADYYCNSRDSSGNPHVLFGGGTQLTVL
notes: also called 18A5 IgG

As a reminder, the Kd is the constant that tells how readily two partners part at equilibrium. Broadly, the koff is the first-order rate constant of dissociation. As usually defined, the kon is a measure of how fast the partners come together.

Substitutions are numbered along the chain they refer to.

For one test, the target named is T1, human IL-21R expressed on cells (human, UniProt Q9HBE5 20-538).
T1 construct: also called human IL-21R-BaF3; human IL-21R-TF1
T1 sequence (Q9HBE5 20-538 limits assumed): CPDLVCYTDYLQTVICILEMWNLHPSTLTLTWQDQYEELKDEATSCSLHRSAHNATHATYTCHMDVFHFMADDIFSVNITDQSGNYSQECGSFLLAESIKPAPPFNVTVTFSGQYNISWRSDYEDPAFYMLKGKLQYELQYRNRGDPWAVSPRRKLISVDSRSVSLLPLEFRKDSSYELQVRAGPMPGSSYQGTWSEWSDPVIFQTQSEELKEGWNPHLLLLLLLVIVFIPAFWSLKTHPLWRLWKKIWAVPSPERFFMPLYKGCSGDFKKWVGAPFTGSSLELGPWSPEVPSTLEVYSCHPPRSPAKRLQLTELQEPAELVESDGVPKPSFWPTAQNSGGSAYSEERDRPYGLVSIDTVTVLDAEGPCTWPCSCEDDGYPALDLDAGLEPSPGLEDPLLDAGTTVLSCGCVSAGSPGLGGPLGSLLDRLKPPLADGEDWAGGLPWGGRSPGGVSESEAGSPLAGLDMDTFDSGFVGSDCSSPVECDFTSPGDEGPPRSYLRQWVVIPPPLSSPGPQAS
In words: cell ELISA, CHO cells. In general terms: ELISA stands for enzyme-linked immunosorbent assay.
As for B1, the “A450 (13 nM Ab)” value was 1.31 A450.
On the same count and under the same terms, under B2 stands 1.11 A450.
The same measure, in the same setting: under B3 stands 1.02 A450; under B4, 1.08 A450.
Consider B5, for which the “A450 (13 nM Ab)” value stood at 1.29 A450.
Same read-out and setting: under B6 stands 1.33 A450.
Still for that read-out and setting: as for B7, the figure is 1.25 A450.

The next test addresses T2, cynomolgus monkey IL-21R expressed on cells (cynomolgus monkey, UniProt G7Q0S8 41-559).
T2 construct: whole, on cells
In words: cell ELISA, CHO cells.
On to B1, for which the “A450 (13 nM Ab)” value is 1.31 A450.
Still for that read-out and setting: under B2 stands 1.36 A450; under B3, 1.22 A450.
The same measure, in the same setting: as for B4, the figure is 1.22 A450.
In the case of B5, the “A450 (13 nM Ab)” value was 1.31 A450.
Still for that read-out and setting: under B6 stands 1.35 A450; under B7, 1.31 A450.

For the next test, the target named is T3, human IL-21R extracellular domain His-Flag fusion protein (human, UniProt Q9HBE5 20-232).
T3 construct: Biotinylated in the HTRF screen; also called hIL-21R-H/F; human IL-21R-H/F
T3 sequence (Q9HBE5 20-232): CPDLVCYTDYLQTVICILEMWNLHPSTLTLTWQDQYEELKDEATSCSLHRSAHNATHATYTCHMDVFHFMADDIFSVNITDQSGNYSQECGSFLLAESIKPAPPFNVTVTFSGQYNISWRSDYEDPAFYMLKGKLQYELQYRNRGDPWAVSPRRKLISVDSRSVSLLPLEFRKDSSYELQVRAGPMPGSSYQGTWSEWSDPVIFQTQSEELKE
In words: SPR, Ab captured on anti-human IgG. The procedure: (§1) The kinetics of binding of anti-IL-21R antibodies to human and murine IL-21R-H/F was tested on a BIACORE™ surface plasmon resonance instrument. Anti-human IgG antibodies (Invitrogen Corporation) were immobilized onto a research-grade carboxy-methyl-dextran chip (CM5) using standard amine coupling. The surface was activated with EDC/NHS for 7 min at a flow of 20 μl/min. The first flow cell was used as a reference surface to correct for bulk refractive index, matrix effects, and nonspecific binding. The anti-human-Fc antibody was diluted to 20 μg/ml in 10 mM sodium acetate buffer (pH 5.0), and 2950-3405 resonance units (RU) were captured on each of the four flow cells. Remaining activated groups were blocked with 1.0 M ethanolamine-HCl (pH 8.5).
(§2) Anti-IL-21R antibodies were diluted to 0.1-0.2 μg/ml in HBS/EP buffer supplemented with 0.2% bovine serum albumin and loaded onto the BIACORE™ chip. Following a brief washing period, solutions of 0-100 nM human IL-21R-H/F or 10-500 nM murine IL-21R-H/F were injected over the chip at a flow rate of 50 μl/min. The association phase was run for 3 min for human and murine IL-21R kinetics, and the dissociation phase was monitored for 15 min for hIL-21R and for 5 min for mIL-21R, followed by two 10 μl injections and one 30 μl injection of glycine (pH 1.5), to regenerate a fully active capturing surface. All binding experiments were done at 25° C. in HBS/EP buffer, and the sample rack was kept at 15° C. Blank and buffer effects were subtracted for each sensorgram using double referencing.
On the technique in general: In SPR one partner is held on a chip, and binding of the other changes the refractive index at the surface.
Molecule B1 displayed a Kd of 0.000615 µM, a koff of 0.000119 s⁻¹ and a kon of 194000 M⁻¹ s⁻¹.
The like results for B8 were, in that order, 0.00443 µM, 0.00108 s⁻¹ and 243000 M⁻¹ s⁻¹.
B2 showed a Kd of 0.000475 µM, a koff of 0.000114 s⁻¹ and a kon of 241000 M⁻¹ s⁻¹.
Regarding B3, binding was characterised by a dissociation constant (Kd) of 0.00202 µM, the koff worked out at 0.000291 s⁻¹ and the kon amounted to 144000 M⁻¹ s⁻¹.
Take B4: the affinity, expressed as Kd, was 0.000379 µM; the koff amounted to 6.78e-05 s⁻¹; the kon stood at 179000 M⁻¹ s⁻¹.
For B5 the same measures were 0.00044 µM, 8.18e-05 s⁻¹ and 186000 M⁻¹ s⁻¹.
B6 came in with a Kd of 0.000567 µM, a koff of 9.61e-05 s⁻¹ and a kon of 170000 M⁻¹ s⁻¹.
B7 registered a Kd of 0.000213 µM, a koff of 9.34e-05 s⁻¹ and a kon of 439000 M⁻¹ s⁻¹.

The target in the next test is T4, murine IL-21R extracellular domain His-Flag fusion protein (murine, UniProt Q9JHX3 20-237).
T4 construct: Biotinylated in the ELISAs; also called mIL-21R-H/F; murine IL-21R-H/F
The experiment in a line: SPR, Ab captured on anti-human IgG. The procedure:
as §1, §2
B1 gave a Kd of 0.0508 µM, a koff of 0.00508 s⁻¹ and a kon of 99900 M⁻¹ s⁻¹.
The like results for B8 were, in that order, 0.072 µM, 0.0153 s⁻¹ and 212000 M⁻¹ s⁻¹.
On to B2, for which the Kd was 0.0492 µM, the koff turned out to be 0.00549 s⁻¹ and the kon is 112000 M⁻¹ s⁻¹.
For the molecule B3, the Kd came out at 0.0167 µM, the koff was determined as 0.00332 s⁻¹ and the kon amounted to 199000 M⁻¹ s⁻¹.
For B4 the same measures were 0.0157 µM, 0.00331 s⁻¹ and 211000 M⁻¹ s⁻¹.
In the case of B5, binding was characterised by a dissociation constant (Kd) of 0.0442 µM, the koff stood at 0.00434 s⁻¹ and the kon was found to be 98100 M⁻¹ s⁻¹.
The like results for B6 were, in that order, 0.0645 µM, 0.00493 s⁻¹ and 76500 M⁻¹ s⁻¹.
The like results for B7 were, in that order, 0.0688 µM, 0.0207 s⁻¹ and 301000 M⁻¹ s⁻¹.

Another test addresses T5, human IL-2Rβ (human, UniProt P14784 27-239).
T5 sequence (looked up): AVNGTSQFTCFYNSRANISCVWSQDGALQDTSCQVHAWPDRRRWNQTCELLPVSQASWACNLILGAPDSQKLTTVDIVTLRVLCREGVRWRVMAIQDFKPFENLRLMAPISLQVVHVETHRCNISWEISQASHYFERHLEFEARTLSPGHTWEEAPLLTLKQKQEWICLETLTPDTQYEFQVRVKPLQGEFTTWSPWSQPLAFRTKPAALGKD
The experiment in a line: BIACORE: antibody captured on anti-human IgG; 50 nM analyte injected. The procedure:
(§3) The specificity of binding of a subset of transiently expressed anti-IL-21R binding proteins (here antibodies) was tested on a BIACORE™ 2000 surface plasmon resonance instrument. Anti-human-IgG, anti-murine immunoglobulin antibodies, and murine IL-21R-H/F were immobilized onto a research-grade carboxymethyl-dextran chip (CM5) using standard amine coupling. The sensor chip surface was activated with EDC/NHS for 7 min at a flow rate of 20 μl/min. The first flow cell was used as reference surface to correct for bulk refractive index, matrix effects, and nonspecific binding. […] Remaining activated groups were blocked with 1.0 M ethanolamine (pH 8.0). The molecular weights of the anti-human IgG and the anti-murine IgG were both 150 kD, and the molecular weight of the IL-21R monomer was 27 kD.
(§4) Conditioned media containing anti-IL-21R antibodies and antibody controls (murine anti-human IL-2Rβ and murine anti-human IL-4R(R&D Systems, Minneapolis, Minn.); human anti-human IL-13 (Wyeth, Cambridge, Mass.)) were diluted in HBS/EP buffer supplemented with 0.2% bovine serum and injected onto all four flow cells of the BIACORE™ chip, capturing 500-700 (RU) of antibody on the species-appropriate capture antibody. Following a 5 sec washing period, 50 nM solutions of a positive control protein (murine IL-21R-H/F), two human proteins related to IL-21R (human IL-2Rβ and human sIL-4R(R&D Systems)), or an unrelated His/FLAG-tagged protein (human IL-13-H/F) were injected over the captured antibodies on the chip. The association and dissociation phases were monitored for 120 and 180 sec, respectively, followed by two 5 μl injections of glycine (pH 1.5) to regenerate a fully active capturing surface. All binding experiments were done at 25° C. in HBS/EP buffer. Blank and buffer effects were subtracted for each sensorgram using double referencing.
For B1, the binding result was “no binding (tested: 50 nM)”.
As to B2, the binding result is given as “no binding (tested: 50 nM)”.
On to B3, for which the binding result is “no binding (tested: 50 nM)”.
Regarding B4, the binding result is “no binding (tested: 50 nM)”.
The same measure, in the same setting: as for B5, the entry is “no binding (tested: 50 nM)”; as for B6, “no binding (tested: 50 nM)”.
In the case of B7, the binding result is on record as “no binding (tested: 50 nM)”.

The target of the next test is T6, human soluble IL-4R (human, UniProt P24394 26-232, limits assumed).
T6 construct: also called human sIL-4R
The description is as above. As for the experimental part:
as §3, §4
B1: the binding result is reported as “no binding (tested: 50 nM)”.
Still for that read-out and setting: under B2 stands “no binding (tested: 50 nM)”; under B3, “no binding (tested: 50 nM)”; under B4, “no binding (tested: 50 nM)”.
The same measure, in the same setting: as for B5, the entry is “no binding (tested: 50 nM)”.
For B6, the binding result is on record as “no binding (tested: 50 nM)”.
The same measure, in the same setting: under B7 stands “no binding (tested: 50 nM)”.

A further test deals with T7, human IL-13-His/FLAG (human, UniProt P35225 35-146, limits assumed).
T7 construct: Unrelated His/FLAG-tagged control; also called human IL-13-H/F
T7 sequence (P35225 35-146 limits assumed): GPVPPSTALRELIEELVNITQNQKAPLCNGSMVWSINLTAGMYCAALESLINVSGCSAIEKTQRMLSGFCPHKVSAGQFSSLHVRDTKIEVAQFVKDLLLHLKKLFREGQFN
The test is described as above. The procedure: as §3, §4
For the molecule B1, the binding result is “no binding (tested: 50 nM)”.
Regarding B2, the binding result is reported as “no binding (tested: 50 nM)”.
In the case of B3, the binding result is “no binding (tested: 50 nM)”.
On the same count and under the same terms, under B4 stands “no binding (tested: 50 nM)”.
The same measure, in the same setting: under B5 stands “no binding (tested: 50 nM)”; under B6, “no binding (tested: 50 nM)”; under B7, “no binding (tested: 50 nM)”.
